Assay results as given in PMC4498918.

What was measured:
Experiment in all cases: EMSA
[1] = system: δ2 (ParA-like) (Streptococcus pyogenes plasmid pSM19035); conditions: 1 mM ATP, 10 mM Mg2+; KDapp, cooperative; EMSA: 50 mM Tris-HCl pH 7.5, 50 mM NaCl, 10 mM MgCl2 (buffer B; Fig 7 legend says buffer C), with or without 1 mM ATP or ADP, 15 min at 37°C, 0.1 nM DNA; 4 or …
[2] = system: δ2D211A (Streptococcus pyogenes plasmid pSM19035); conditions: EMSA: 50 mM Tris-HCl pH 7.5, 50 mM NaCl, 10 mM MgCl2 (buffer B; Fig 7 legend says buffer C), with or without 1 mM ATP or ADP, 15 min at 37°C, 0.1 nM DNA; 4 or …
[3] = system: δ2D60A (Streptococcus pyogenes plasmid pSM19035); conditions: EMSA: 50 mM Tris-HCl pH 7.5, 50 mM NaCl, 10 mM MgCl2 (buffer B; Fig 7 legend says buffer C), with or without 1 mM ATP or ADP, 15 min at 37°C, 0.1 nM DNA; 4 or …
[4] = system: δ2K242A (Streptococcus pyogenes plasmid pSM19035); conditions: EMSA: 50 mM Tris-HCl pH 7.5, 50 mM NaCl, 10 mM MgCl2 (buffer B; Fig 7 legend says buffer C), with or without 1 mM ATP or ADP, 15 min at 37°C, 0.1 nM DNA; 4 or …

423-bp HindIII-KpnI parS2 DNA was tested, and the Kd [1] was 140 nM, the binding signal (fold higher affinity than wt) [2] was > 6 and the binding signal (fold higher affinity than wt) [3] was 2. The binding signal (fold lower binding than wt) [4] was 20.
